{"source": "the DeepSol protein solubility set"}
{"assay": "soluble on expression in E. coli; label from the status in PepcDB or PDB records"}
{"sequence": "MPSSRRVRSRCCAFGITKRFACIRPACQRARMDAQMTNFETRLRENAAKTEALLGHLLSGEARADEITRPQNLLEAMRHGVLNGGKRLRPFLVIESVALLGGDAEAGLHVGAALECLHCYSLVHDDLPAMDDDDLRRGQPTVHRKFDEATAILAGDSLLTLAFDIIASDDNPLAAERKAALVISLARAAGIGGMAGGQALDLAAEKKAPDEDGIITLQAMKTGALLRFACEAGAIIAGSNQAERQRLRLFGEKIGLSFQLADDLLDLTADAATMGKATGKDAARGKGTLVALRGEAWAREKLQE", "soluble on expression in E. coli": "soluble"}
{"sequence": "MPSSTTVPTRRGLVSGPSSSDAHGDMPAVSVIMNCLNCERDLAEAIGSVFAQTFDDWEIVFWDNGSTDRSAEIAQGFGERVRYFRATETVPLGAARNLAIAKARGEFIAFLDCDDVWLPEKLERQVALFRANPRVGLVCTDTVMFTGAKDLNRLFEHAHPARGHVFRELMTTQWISMSSAVIRRNALDGMDHWFDESLNVCEEADVFYRIAWDWELDHVDAPLTRWRVHGANTTFRKFGQFAEETLRILDKHRAMYPGYDERYADLVALLRRRAAFQRAVALWREGRGAEARATIAPFDASPKFRLFRLATYLPGALFDPLARLYFALPAFLRRLEHHHHHH", "soluble on expression in E. coli": "not soluble"}
{"sequence": "MPTAIDLFAGLGGWSNGARRAGVKVLWAANHWPVAVGWHSANHPDAIHVCQDLHQADWSKVPAHGIMLASPCCQGHSKARGKKSGNAQHDSSRSTAWAVVSAAEYHSPEVVLVENVEEFTDWALYPAWSQAMAALGYMIAPHVVDCADLGVPQHRVRLFLVCTRSKAPLNLQLHQRQHVPASSFIDFDSGKWSPIVKPSRAESTLTRVKNGRQRFGERFIMPYYRSGSGLTGSCIERPIGTITKLDRWALVRGNEMRMLSADEGLAGMSFDADTKRPASHRLTMHMAGTSTNPVG", "soluble on expression in E. coli": "not soluble"}
{"sequence": "MPTDDKARPRKTLTIKKTAPAAPSADDEAPRRKRIGARARLVAQMERAKEQQHAPRRKAPRQDAAHQDDAPRRRPRAPREAEIFPVYAPCPQGIEEALAAEMQALGFEDARAGRAGCAFSTDWAGVQRANLYSRLATRILVQVAQADIGHEDDILDLARSVPWERWFGPDETLRVDTSAIKSPVKSLQYCNLRAKDGICDRLREVEGARPDIDTVRPDARVHLFLSGTTATLYLDTSGESLFKRGWRLDKGEAPLRENLAAGMLALAGWDPAEPLLDPFCGSGTILIEAAWIALGVPPGISRPFGFERLRNHDARRWQDLKADARTRIQTQLETPLFGYDLDPRAIQYAQANAERAWLTADTIRFEVGDARHLAAPADHGWIVTNPPYGERMETEDDSEMWRDWAACLKRQFAGWQVHVISSDMTLPQRLRLKPLRRVPLHNGALDCRLFGFELVPASYRKPA", "soluble on expression in E. coli": "not soluble"}
{"sequence": "MPTDEPSKRKSILPTIPTSLMLKKSNEALSDFERTFNDRVMDIFAENRRIDVEEFKKNAECFLNIIRSNKIDLNWGEGGESRYVTITRLMKILKTSPQSIKDLLPHNTVSNFVKITNYNLTIDITLLEELVRTVIHAEESYIKLLPFSENSTEISSYSLQDFVATHFIPIMIEEPENPVYYTAYAVGTIFFLLGARRRDCVYLKDLLASTLLLQLEECIHAENHCLSPPKIDVFTVAQFRTTLSEFRFLDSQRKGLLAPADLKFFRDGIFNEVFTKRIFEISITYEDGRIDFKAFVDFVTALKFRHTTASAKYHFEILDLKDDGLLDEEEIRSISSFQLQNLPDYVPEDNSVNPEVATAELRDMMRLNQNGITLEEFLANRMNSTFAGFLSNSDDYMKYERREQ", "soluble on expression in E. coli": "not soluble"}
{"sequence": "MPTGKSESSDISEVVGNMEISKVEGLEACIGMSHEVSTTPAAELAAFRARKVALITGISGQDGSYLAELLLSKGYKVHGIIRRSSSFNTARIEHLYSNPITHHGDSSFSLHYGDMTDSSCLIKLISTIEPTEVYHLAAQSHVKVSFDLPEYTAEVDAVGTLRLLDAIHACRLTEKVRFYQASTSELYGKVQEIPQSEKTPFYPRSPYAVAKMYGYWIVVNYREAYNMFACNGILFNHESPRRGETFVTRKITRSVAKISLGQQESIELGNLSALRDWGHAREYVEAMWRILQHDSPDDFVIATGKQFSVREFCNLAFAEIGEVLQWEGEGVEEVGKNKDGVIRVKVSPKYYRPTEVETLLGNAEKAKKTLGWEAKVTVPELVKEMVASDIILMKSNPMA", "soluble on expression in E. coli": "not soluble"}
{"sequence": "MPTLLIRLQGPLQSWGTRSRFDHRDTWPYPTKSGVVGLLAAALGRDRREDVSDLAALRMGVRVDRKGVLKVDYQTAQFVYRTEGYVAVSTPKEREWLSRYTKTPIRVDERNATVTSKRYFLSDAAFLVGLEGERALLEALHRALKNPRFPLYLGRKSYVPSPPPYLPDGLVEAPLAEALEGYPYLLGGKPPEDLLLALEAEEGRLVYDQPAGPFSERRFAARFVREEVLPKERVPEGPPAWEVARVAH", "soluble on expression in E. coli": "soluble"}
{"sequence": "MPTPKAFALLGPTAGGKTALALKIAETLPVEIISLDSALVYRDMDIGTAKPSASERAFVPHHLIDIIPPTESYSAARFVEDCTRLVGEISSRGRFALIVGGTMMYFRALTQGLNDLPEADACLRADLDEQKQMYGLDFLYRTLQKVDPETACRLKPNDSQRIGRALEVYYLTGKPMSTHLGSLTSHTLPFDLHTAALIPENRARLHENIALRFHLMLEQGFIGEVENLRRRYPGLTAYSPAIRCVGYRQAWKYLDGKTDFPAFVEKGIAATRQLAKRQLTWLRKTPLDCVADPFSDCTSCTRLIEAAKRFFGALEHHHHHH", "soluble on expression in E. coli": "soluble"}
{"sequence": "MPTQFIRNRSAFPQGTNNDIDDFQYQNDFSSSSHQLPSTASGYSEHSSHQNFQNHSPPPGKATTDPLAGALLGLSDVITKSLISHPCGVLRRQCQVHQFAGSLHLTPVTLIPVICNSVAKQGIQTFWKGAIGSSVLWGLTNVTEIVLGDLMGLPRTFVVNGSAEKYWKHIVLKGVTFVTMTPFYISSFIETVRSESGIGGEDNKILDVLVKGVDRMRYFLTSGRDPSRRFSIIHLAIPTAGFQVGHYMLQTALYHQFFRMAKRYVNRKSPAEKTTYHDFLPQMFAQTSSMVLTDLILYPFETIVHRMYIQGTRTLIDNMDTGLSAVSMTVKYSGYFDCVRQVLETEGFWALYAGVGAVLLEYSLHQGLQQLVRACFDRGSELLRKATQGHPVVQSSQITPPISAKSSFNGPISNSFPSAGAALLSPMSTPRKHSTPPKDPTEFPTFGETVSQIGSPYQMPDRPNVFGSPPNRTRATHDSTQSLPPLQLNIRPSSGDPFSG", "soluble on expression in E. coli": "not soluble"}
{"sequence": "MPTSSTPPIVYETDLEPIYYQDCYCHKELVFCKNWKFGGEIFKYNSSGTNSSIRRVQFDCCVYKDQEIDEEMSEKVKTFKGTLDPRQVVQNNCFQHLSPLYSKFCEHYGHMIGFFWNSLKDTVMAYDIADGLFQETKDCGCCLFHKDVYLTNHIFFEKSHRDEYGQTIICMDINWHTKEHGKMSIFFNSQGFFGEYRWNRVAQCFKLMKQLDVKTTEYEVADRTDDEKNWSSFSYDAIHFLEQEYRKTKYISSTDCQKISEKIHLDEELIEKWFRARRATSKREANSNEDIFTSQYQQTKLTMKDGTEGYFLRKNHEYFKKIVVTVGFSDGSVKPCVWIEKISEYQIIDQETWRLKFENSRVMAIDAEAREQVHRQRKLNSNEKRKEEEAENEQEKLFKEMAELEIQNYRILPNSSDKRLEEHELKTQSSTLPKPCAHAQAQAHAQAQAHAQAHETNDNWPKLMTELFRALLQGQSLTQQHMQRLVHLRTQPDFNRRSYAGHELTAMEMEALKQLLNLLNGKEMPTGKKEEVEGSGLTISEAHGTVGSPMLIEKKEELEGSLEHQPTMANEEIDQNLKEETTTKPEYRKKLRMSKRKQNELLQKLWLKEKNTENTHAEKTNQEKKLTENAVQEQLEQMMKMIQEERRAADSKNLKLEQMVLEMKDKLDAQETRIKELEEVIKSDKNAKKGEQLTDPTEPQYTEAPNAEVGHKSNISSSIGNDVDLLEDDSGED", "soluble on expression in E. coli": "not soluble"}
{"sequence": "MPTTQLHHHYVLCGWHVRSALTLPELPPWSATATPVDADVVIEEGEVPDRLDLHDPVESWLSVGRDGSVLLQVPQVVRIHVHAGRAMRVQRLNRHDESWRLFLLGSALGYLCLQRSLFPLHAACLRIGTQTVAFAGHSGAGKSTLAAALLKRGHGLLSDDLTVIRLDSAGAIMVLPAFPRLKLWRDTLESLQLPVTDAPPVRPGMEKFDLRPSAGFDAAPVRLDAVVVLGDASEPHLQRLSPQHALPLLHGYLARPQAAVRMGLHAATFAHAAAIARQVPVWRLRRPRRFDALDITVDLIEAHVGALEHHHHHH", "soluble on expression in E. coli": "not soluble"}
{"sequence": "MPVDRILEAELAVEQKSDQGVEGPGGTGGSGSSPNDPVTNICQAADKQLFTLVEWAKRIPHFSSLPLDDQVILLRAGWNELLIASFSHRSIDVRDGILLATGLHVHRNSAHSAGVGAIFDRVLTELVSKMRDMRMDKTELGCLRAIILFNPDAKGLSNPSEVEVLREKVYASLETYCKQKYPEQQGRFAKLLLRLPALRSIGLKCLEHLFFFKLIGDTPIDTFL", "soluble on expression in E. coli": "soluble"}
